# Results published in patent publication US20230212549A1 (3B PHARMACEUTICALS, published 2023).
# Several values for one entry are separate records, joined by “and”; a condition that tells them apart may be missing. Equal entries are not always repeated. Numbered stars: 1 amine (or outer) side, 2 acyl side, 3 side chain; on linkers, the order of the positions; unused ones are H or OH. Bridge positions count the residues as written; N and C are the ends. Square brackets hold non-standard residues; d marks the D form. * marks the point of attachment. Pro(trans-4-F) = O=C(O)[C@@H]1C[C@@H](F)CN1; Phe(4-Cl) = N[C@@H](Cc1ccc(Cl)cc1)C(=O)O; 2Nal = N[C@@H](Cc1ccc2ccccc2c1)C(=O)O; mXylylene = c1cc(C[*:1])cc(C[*:2])c1; Hexanoyl = CCCCCC(=O)*; Sar = CNCC(=O)O
# B1: Hex-[Cys(3MeBn)-Pro-Pro-Thr-Glu-Pcf-Cys]-NH2 (peptide)
# peptide: Hexanoyl-CPPTE[Phe(4-Cl)]C-NH2
# modifications: linker 1-7 via mXylylene
# SMILES: CCCCCC(=O)N[C@H]1CSCc2cccc(c2)CSC[C@@H](C(N)=O)NC(=O)[C@H](Cc2ccc(Cl)cc2)NC(=O)[C@H](CCC(=O)O)NC(=O)[C@H]([C@@H](C)O)NC(=O)[C@@H]2CCCN2C(=O)[C@@H]2CCCN2C1=O
# notes: also called 3BP-3369
# B2: Hex-[Cys(3MeBn)-Gly-Pro-Thr-Glu-Phe-Cys]-NH2 (peptide)
# peptide: Hexanoyl-CGPTEFC-NH2
# modifications: linker 1-7 via mXylylene
# SMILES: CCCCCC(=O)N[C@H]1CSCc2cccc(c2)CSC[C@@H](C(N)=O)NC(=O)[C@H](Cc2ccccc2)NC(=O)[C@H](CCC(=O)O)NC(=O)[C@H]([C@@H](C)O)NC(=O)[C@@H]2CCCN2C(=O)CNC1=O
# notes: also called 3BP-3345
# B3: Hex-[Cys(3MeBn)-Pro-Pro-Thr-Glu-Phe-Cys]-NH2 (peptide)
# peptide: Hexanoyl-CPPTEFC-NH2
# modifications: linker 1-7 via mXylylene
# SMILES: CCCCCC(=O)N[C@H]1CSCc2cccc(c2)CSC[C@@H](C(N)=O)NC(=O)[C@H](Cc2ccccc2)NC(=O)[C@H](CCC(=O)O)NC(=O)[C@H]([C@@H](C)O)NC(=O)[C@@H]2CCCN2C(=O)[C@@H]2CCCN2C1=O
# notes: also called 3BP-3287
# B4: Ac-Met-[Cys(3MeBn)-Pro-Pro-Thr-Glu-Phe-Cys]-Asp-His-Phe-Ala-Asp-NH2 (peptide)
# peptide: Ac-MCPPTEFCDHFAD-NH2
# modifications: linker 2-8 via mXylylene
# SMILES: CSCC[C@H](NC(C)=O)C(=O)N[C@H]1CSCc2cccc(c2)CSC[C@@H](C(=O)N[C@@H](CC(=O)O)C(=O)N[C@@H](Cc2c[nH]cn2)C(=O)N[C@@H](Cc2ccccc2)C(=O)N[C@@H](C)C(=O)N[C@@H](CC(=O)O)C(N)=O)NC(=O)[C@H](Cc2ccccc2)NC(=O)[C@H](CCC(=O)O)NC(=O)[C@H]([C@@H](C)O)NC(=O)[C@@H]2CCCN2C(=O)[C@@H]2CCCN2C1=O
# notes: also called 3BP-3197
# B5: Ac-Met-[Cys(3MeBn)-ala-Pro-Thr-Glu-Phe-Cys]-Asp-His-Phe-Arg-Asp-NH2 (peptide)
# peptide: Ac-MC[dA]PTEFCDHFRD-NH2
# modifications: linker 2-8 via mXylylene
# SMILES: CSCC[C@H](NC(C)=O)C(=O)N[C@H]1CSCc2cccc(c2)CSC[C@@H](C(=O)N[C@@H](CC(=O)O)C(=O)N[C@@H](Cc2c[nH]cn2)C(=O)N[C@@H](Cc2ccccc2)C(=O)N[C@@H](CCCNC(=N)N)C(=O)N[C@@H](CC(=O)O)C(N)=O)NC(=O)[C@H](Cc2ccccc2)NC(=O)[C@H](CCC(=O)O)NC(=O)[C@H]([C@@H](C)O)NC(=O)[C@@H]2CCCN2C(=O)[C@@H](C)NC1=O
# notes: also called 3BP-3215
# B6: Hex-[Cys(3MeBn)-Pro-Pro-Thr-Glu-2Ni-Cys]-NH2 (peptide)
# peptide: Hexanoyl-CPPTE[2Nal]C-NH2
# modifications: linker 1-7 via mXylylene
# SMILES: CCCCCC(=O)N[C@H]1CSCc2cccc(c2)CSC[C@@H](C(N)=O)NC(=O)[C@H](Cc2ccc3ccccc3c2)NC(=O)[C@H](CCC(=O)O)NC(=O)[C@H]([C@@H](C)O)NC(=O)[C@@H]2CCCN2C(=O)[C@@H]2CCCN2C1=O
# notes: also called 3BP-3362
# B7: Hex-[Cys(3MeBn)-Pro-4Tfp-Thr-Glu-Phe-Cys]-NH2 (peptide)
# peptide: Hexanoyl-CP[Pro(trans-4-F)]TEFC-NH2
# modifications: linker 1-7 via mXylylene
# SMILES: CCCCCC(=O)N[C@H]1CSCc2cccc(c2)CSC[C@@H](C(N)=O)NC(=O)[C@H](Cc2ccccc2)NC(=O)[C@H](CCC(=O)O)NC(=O)[C@H]([C@@H](C)O)NC(=O)[C@@H]2C[C@@H](F)CN2C(=O)[C@@H]2CCCN2C1=O
# notes: also called 3BP-3352
# B8: Hex-[Cys(3MeBn)-Nmg-Pro-Thr-Glu-Phe-Cys]-NH2 (peptide)
# peptide: Hexanoyl-C[Sar]PTEFC-NH2
# modifications: linker 1-7 via mXylylene
# SMILES: CCCCCC(=O)N[C@H]1CSCc2cccc(c2)CSC[C@@H](C(N)=O)NC(=O)[C@H](Cc2ccccc2)NC(=O)[C@H](CCC(=O)O)NC(=O)[C@H]([C@@H](C)O)NC(=O)[C@@H]2CCCN2C(=O)CN(C)C1=O
# notes: also called 3BP-3347
# Biological target: T1, fibroblast activation protein (FAP) on FAP-expressing human WI-38 fibroblasts (human, UniProt Q12884 1-760)
# T1 construct: also called human FAP
# Experiment: competitive FACS, WI-38 cells, vs Cy5 tracer m3; C = pIC50 6.1-7.0
row,pIC50 Category (FACS),Binder
1,6.1 pIC50 and 7 pIC50,B1
2,6.1 pIC50 and 7 pIC50,B2
3,6.1 pIC50 and 7 pIC50,B3
4,6.1 pIC50 and 7 pIC50,B4
5,6.1 pIC50 and 7 pIC50,B5
6,6.1 pIC50 and 7 pIC50,B6
7,6.1 pIC50 and 7 pIC50,B7
8,6.1 pIC50 and 7 pIC50,B8

# Biological target: Recombinant human FAP (R&D systems, #3715-SE) (human, UniProt Q12884 26-760)
# Experiment: cell-based or functional assay
row,pIC50 Category (Activity),Binder
1,6.1 pIC50 and 7 pIC50,B1
2,7.1 pIC50 and 8 pIC50,B2
3,7.1 pIC50 and 8 pIC50,B3
4,6.1 pIC50 and 7 pIC50,B4
5,6.1 pIC50 and 7 pIC50,B5
6,6.1 pIC50 and 7 pIC50,B6
7,7.1 pIC50 and 8 pIC50,B7
8,7.1 pIC50 and 8 pIC50,B8
